In PMC11864512 one finds stoichiometry N data, which are given here for 1 substance.

The target in this test is Ikoma lyssavirus glycoprotein ectodomain (IKOV-G-ecto) (Ikoma lyssavirus (IKOV)). Put plainly: crystal structure.

“Ikoma lyssavirus glycoprotein ectodomain (IKOV-G-ecto) (domain or fragment)” came in with a stoichiometry N of 3.

In general, stoichiometry N refers to a count of units in the complex or per binding partner.
